The text below walks through data of article PMC4053179.

The target of test [1] is recombinant p38α MAP kinase (mitogen activated protein kinase) (UniProt Q16539).
Test [2] has the same target. Nature of the test: SPR; His-tagged p38α immobilised on an NTA sensor chip via Ni2+/NTA chelation, 25°C, BIAcore-2000; C-25 injected at 4.6 × 10^−6, 9.2 × 10^−6 and 13.8 × 10^−6 M; BIAevaluation 3.0. In general terms: Surface plasmon resonance follows binding to a sensor surface in real time, without labels.

Chain of UniProt Q16539 (Q16539 whole entry): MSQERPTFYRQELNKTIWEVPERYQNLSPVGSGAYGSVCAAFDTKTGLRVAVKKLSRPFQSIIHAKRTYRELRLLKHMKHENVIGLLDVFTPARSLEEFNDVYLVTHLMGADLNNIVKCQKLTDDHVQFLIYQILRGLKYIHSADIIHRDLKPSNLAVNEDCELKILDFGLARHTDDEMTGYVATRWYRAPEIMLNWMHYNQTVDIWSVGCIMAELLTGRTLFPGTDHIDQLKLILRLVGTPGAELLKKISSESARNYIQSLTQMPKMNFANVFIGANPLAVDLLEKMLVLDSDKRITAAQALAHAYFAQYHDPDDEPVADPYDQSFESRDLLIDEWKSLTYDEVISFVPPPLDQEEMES

In general, Kd refers to the constant that tells how readily two partners part at equilibrium. For “C-25 protein from Cicer arietinum (natural protein)”, in test [1], the IC50 of inhibition of the phosphorylation of plate-coated ATF-2 by p38α (ELISA kinase assay, 100 μM ATP, C-25 at 1-25 μM, anti-phospho ATF-2 detection) is 7.9 µM. Further, in test [2], the Kd was determined as 0.269 µM.
